Source: patent US20040202655A1 (published 2004)
Where a chain is given by its changes, count along the chain named. Where “and” joins values, the source holds several entries; their conditions need not be identical. Equal entries are not always repeated.

B1: PINT-11A3 IgG (antibody, V domains shown)
VH: EVQLVQSGAEVKKPGASVKVSCKASGYSFTNYGLNWVRQAPGQGLEWMGWISPYTGYTNYAQKFQGRVTMTTDKSTSTAYMDLRSLRSDDTAVYYCAREIFSHCTGGSCYPFDSWGRGTLVTVSS
VL: LSSELTQDPAVSVALGQTVRITCQGDSLRNYYASWYQQKPGQAPLLVMFGKNNRPSEIPGRFSGSSSGNTASLTITGAQAEDEADYYCNSRDRNSHQWVFGGGTKLTVLG
B2: PINT-12A1 IgG (antibody, V domains shown)
VH: B1 VH with R117K
VL: LSSELTQDPAVSVALGQTVRITCQGDSLRNYYASWYQQKPGQAPVLVLYSKNSRPSGVPDRFSGSSSGTTASLTISGAQAEDEADYYCNSRDTSGDLRWVFGGGTKLTVLG
notes: see recheck
B3: PINT-11A7 IgG (antibody, V domains shown)
VH: B1 VH with N35D, L120M
VL: LSSELTQDPAVSVALGQTVRITCQGDSLRSYYASWYQQKPGQAPVLVIYGKNNRPSGIPDRFSGSSSGNTASLTITGAQAEDEADYYCNSRDSSGNHRNWVFGGGTKVTVLG
B4: PINT-12A3 IgG (antibody, V domains shown)
VH: B1 VH with E1Q, T72S, V93I, T105S, S114Y, R117Q
VL: B3 VL with V45L, K51R, G95T, R98G, K107Q, V108L, G112S
B5: PINT-11A5 IgG (antibody, V domains shown)
VH: B1 VH with E1Q, R117K
VL: LSSELTQDPAVSVALGQTVRITCQGDSLRSYYASWYQQKPGQAPVLVIYGKNNRPSGIPDRFSGSSSGNTASLTITGAQAEDEADYYCNSRDSSGNHHWVFGGGTKVTVLG
B6: PINT-12A4 IgG (antibody, V domains shown)
VH: B1 VH with E1Q, L120M
VL: B5 VL with H97L, H98N, K106Q, V107L, G111S
B7: PINT-12A2 IgG (antibody, V domains shown)
VH: B1 VH with R117Q
VL: B1 VL with R93S
B8: PINT-11A2 IgG (antibody, V domains shown)
VH: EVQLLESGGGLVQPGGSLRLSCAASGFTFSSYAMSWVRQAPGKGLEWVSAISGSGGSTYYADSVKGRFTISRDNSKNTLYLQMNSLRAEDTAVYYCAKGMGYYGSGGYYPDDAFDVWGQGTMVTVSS
VL: LSSELTQDPDVSMALGQTVTISCRGDSLKRFYASWYHQKPGQAPVLVFYGKENRPSGIPDRFSGSDSGDTASLTITGAQAEDEGDYYCHTQDTSARQYVFGSGTKVTVLG
B9: PINT-11A1 IgG (antibody, V domains shown)
VH: EVQLVESGGGVVQPGRSLRLSCAASGFTFSDFAMHWVRQIPGKGLEWLSGLRHDGSTAYYAGSVKGRFTISRDNSRNTVYLQMNSLRAEDTATYYCVTGSGSSGPHAFPVWGKGTLVTVSS
VL: not shown
B10: PINT-11A12 IgG (antibody, V domains shown)
VH: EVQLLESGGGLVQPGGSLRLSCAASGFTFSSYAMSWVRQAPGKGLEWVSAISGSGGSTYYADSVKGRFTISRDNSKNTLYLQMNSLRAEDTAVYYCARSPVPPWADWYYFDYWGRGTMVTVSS
VL: AQAVLTQPSSVSGAPGQRVTISCTGSRSNFGAGYDVHWYQQFPGTAPKLLIYGNTNRPSGVPDRFSGSRSGTSASLAITGLQAEDEADYYCQSYDSNLSGSVFGGGTKVTVLG
B11: PINT-11A11 IgG (antibody, V domains shown)
VH: QVQLVESGGGLVKPGGSLRLSCAASGFTFSSHTMNWVRQAQGKGLEWVSSISGSGRYIYYSDSVKGRFTISRDAAKNSLYLQMNNLRAEDTAVYYCTRAKFGDYLFDSWGQGTLVTVSS
VL: LNFMLTQPHSVSQSPGKTVTISCTRSSGRIASNFVQWYQQRPGSAPTTVIYEDNRRPSGVPDRFSGSIDSSSNSASLTISGLKTEDEADYYCQSYDARYQVFGTGTKVTVLG
B12: PINT-7A2 IgG (antibody, V domains shown)
VH: GVQLVQSGAEVKKPGESLTISCKGSGYNFFNYWIGWVRQMPGKGLEWMGIIYPTDSDTRYSPSFQGQVTISVDKSISTAYLQWSSLKASDTAMYYCARSIRYCPGGRCYSGYYGMDVWGQGTMVTVSS
VL: SELTQDPAVSVALGQTVRITCQGDSLRSYYTNWFQQKPGQAPLLVVYAKNKRPSGIPDRFSGSSSGNTASLTITGAQAEDEADYYCNSRDSSGNHVVFGGGTKLTVLG
B13: PINT-7A6 IgG (antibody, V domains shown)
VH: B12 VH with G1E, M123L
VL: B12 VL

biological target: T1, human IGF-I receptor on cells (NIH-3T3 fibroblasts expressing the human IGF-IR; DU145 cells) (human, UniProt P08069 31-1367); experiment: cell-based or functional assay

Binder	IC50 (nM), IGF-1 dependent proliferation of NIH-3T3/hIGF-1R cells (BrdU ELISA)
B1	32.1 nM and > 70 nM
B2	> 70 nM
B3	> 70 nM
B4	> 70 nM
B5	> 70 nM
B6	> 70 nM
B7	> 70 nM
B8	> 70 nM
B9	5.4 nM and 3.3 nM
B10	> 70 nM
B11	16.4 nM and 25 nM
B12	5 nM and 3.8 nM
B13	> 70 nM

biological target: T1, human IGF-I receptor on cells (NIH-3T3 …); experiment: cell-based or functional assay; remark: another data set of the same source

Binder	Antagonist Assay IC50 (nM), IGF-I-induced IGF-1R tyrosine phosphorylation (ELISA)
B2	> 40 nM
B3	26.6 nM and > 40 nM and 25.5 nM
B4	> 40 nM
B5	> 40 nM
B6	> 40 nM
B7	> 40 nM
B8	> 40 nM
B9	5.4 nM and 7.4 nM
B10	> 40 nM
B11	14.9 nM and 10.6 nM
B12	2.62 nM and 1.97 nM
B13	9.7 nM and 8.5 nM

biological target: T1, human IGF-I receptor on cells (NIH-3T3 …); experiment: competition with 125I-IGF-I, NIH-3T3 cells expressing human IGF-1R, 4 C
Protocol: (§1) NIH-3T3 fibroblasts expressing the human IGF-IR, or NIH-3T3 non-transfected fibroblasts were plated at 6×10⁴ cells per well in 0.5 ml of DMEM (Gibco, #11960-044) supplemented with 10% heat-inactivated fetal bovine serum (Gibco, #16140-071), 2 mM L-glutamine (Gibco, #25030-081) and 50 U/ml penicillin-streptomycin (Gibco, #15070-063). The NIH-3T3 cells were used as a control for non-specific cell binding. The plates were incubated at 37° C./5% CO₂ for 24 hours to allow cells to attach and become 80-90% confluent. The overlying media was then replaced with 0.5 ml per well of starvation media consisting of DMEM, 20 mM Hepes (Gibco, #15630-080), 2 mM L-glutamine and 0.1% bovine serum albumin (Equitech-Bio, protease-free, Kerrville, Tex.) and the plates were incubated at 37° C., 5% CO₂ overnight. All subsequent binding steps were conducted at 4° C. Test antibodies were diluted in ice-cold starvation media to the desired final concentration and 100 μl added per well. All samples were performed in duplicate. […] Cell monolayers were washed three times with ice-cold PBS (Gibco, #14040-117) and cells and associated radioactivity were released by adding 0.5ml 2% sodium dodecyl sulfate/0.2N NaOH to each well and heating the plates at 60° C. for 15 minutes. Lysate associated radioactivity was quantitated by gamma scintillation spectrometry. Alternatively, the same described experiment was performed with preincubation with the test antibodies at 37° C. for 10 minutes, followed by 10 minutes incubation at 37° C. after addition of 400 pM of the iodinated radioligand.

Binder	IC50
B1	1.1 nM and 1.2 nM
B2	1.5 nM and 1.2 nM
B3	1 nM and 1.4 nM
B4	1.5 nM and 1.7 nM
B5	1.2 nM and < 0.4 nM and 0.75 nM
B6	> 50 nM
B7	1 nM and 0.7 nM
B8	> 100 nM
B9	8 nM and 10 nM
B11	1.6 nM
B12	0.5 nM and 1.3 nM
B13	1 nM and 0.8 nM

biological target: T1, human IGF-I receptor on cells (NIH-3T3 …); experiment: competition with 125I-IGF-II, NIH-3T3 cells expressing human IGF-1R, 4 C
Protocol: as §1

Binder	IC50
B9	> 75 nM
B12	< 0.8 nM and 0.4 nM
B13	< 0.8 nM and 0.3 nM

biological target: T2, human insulin receptor on CHO cells (human, UniProt P06213 28-1382); experiment: competition with 125I-insulin, CHO cells expressing human insulin receptor, 4 C
T2 construct: whole, on cells
Protocol: The Parental 3T3 cells were used as a control for background radioactivity. We then incubated the plates at 37° C., 5% CO₂ for 24 hours to allow cells to attach and become 80-90% confluent. The media was decanted from the plates, replaced with 500 μl per well of starvation or assay media consisting of IMDM, 20 mM Hepes (Gibco, #15630-080), 2 mM L-glutamine and 0.1% bovine serum albumin (Equitech-Bio, protease-free, Kerryville, Tex.) and the plates were incubated at 37° C., 5% CO₂ overnight. The antibodies were diluted in cold assay media to the desired final concentration and added 100 μl per well. All samples were performed in duplicate. The plates were incubated at 4° C. for 30 minutes. […] The plates were incubated for 2.5 hours at 4° C., then aspirated the media and washed 3× with cold DPBS (Gibco, #14040-117). The cells were lysed by adding 500 μl 0.2 NaOH, 2% SDS and incubating the plates for 15 minutes at 60° C. The samples were transferred to 12×75 tubes (Sarsted, #55.476, 5 ml) and the signal read on a gamma counter.

Binder	IC50 [nM]
B2	> 200
B3	> 200
B4	> 200
B5	> 200
B6	> 200
B7	> 200
B10	> 200
B11	> 200
